Experimental data: PMC2957411

Experiments:
[1] = target: T1, His6-HrpL (alternative sigma factor);core RNA polymerase (Epicentre) (Dickeya dadantii 3937;) (UniProt E0SE58+P0A7Z4+P0A8V2+P0A8T7+P0A800); assay: EMSA
[2] = target: T1, His6-HrpL (alternative sigma factor);core RNA polymerase (Epicentre) (Dickeya dadantii 3937;); assay: competition

Sequence	binding [1]	binding [2]
AAGTATCTGCAACGGATGCCCGCTCCGATCCCGATGCGGGCATCATGATGGATACTGGTTAATGAGTGACGCCAGCGGTGAAACGGTTCCCTGCCGTCGCCGGTTCGCCGCAAAAAAAGAAACCG (double strand) [hrpN promoter fragment with hrp box]	binds	
CTTGGTGGCTGAGTCCATCTGGCCGTCGGTGATTGAGCTGATAGCATCGGTTTTCATTTTCTGCTCCTGGGCAGCGGTGGTCATCGCCGTGGTCGATGCCATGGTTTTGTCCAGAGACTGC (double strand) [hrpA ORF internal fragment (hrpAORF), no hrp box]		no binding
GATTTCGCTATGAACTTTGCGACTTACACAGTCATCGTGTTCATAGATTAAGTAGGAGATAATGCGAGGTGGTTCCGAAAGATATTCACTTTTTTCCCCTGGTGGTGATAACAGGATACAGCC (double strand) [hrpA promoter fragment with hrp box]	binds	
